Source: patent publication US20090192084A1
One block for each substance: values may come before it.

Experiments:
[1] = biological target: Baculoviral IAP repeat-containing protein 2, IAP2 (human) (UniProt Q13490); experiment: Flag co-IP, MudPIT MS, DMSO
[2] = biological target: CUL3-interacting protein I. KLHL12 (human) (UniProt Q53G59); experiment: Flag co-IP, MudPIT MS, DMSO
Cullin 3 (human) = Cullin 3 (human) (UniProt Q13618); experiment: Flag co-IP, MudPIT MS, DMSO
[3] = biological target: DNA damage-binding protein I. DDB1 (human) (UniProt Q16531); experiment: Flag co-IP, MudPIT MS, DMSO
EDD1/UBR5 (human) [4] = biological target: EDD1/UBR5 (human) (UniProt O95071); experiment: Flag co-IP, MudPIT MS, DMSO
[5] = biological target: Kelch-like protein 22. KLEIL22 (human) (UniProt Q53GT1); experiment: Flag co-IP, MudPIT MS, DMSO
Praja 2 (human) = Praja 2 (human) (UniProt O43164); experiment: Flag co-IP, MudPIT MS, DMSO
[6] = biological target: Retinoblastoma-associated factor 600, UBR4 (human) (UniProt Q5T4S7); experiment: Flag co-IP, MudPIT MS, DMSO
UBR1 (human) = UBR1 (human) (UniProt Q8IWV7); experiment: Flag co-IP, MudPIT MS, DMSO
UBR2 (human) [7] = biological target: UBR2 (human) (UniProt Q8IWV8); experiment: Flag co-IP, MudPIT MS, DMSO
gp78 (human) [8] = biological target: gp78 (human) (UniProt Q9UKV5); experiment: Flag co-IP, MudPIT MS, DMSO
[9] = biological target: DNA damage-binding protein I. DDB1 (human) (UniProt Q16531); experiment: Flag co-IP, MudPIT MS, MG132
[10] = biological target: E3 ubiquitin-protein ligase1-HUWE1 (human) (UniProt Q7Z6Z7); experiment: Flag co-IP, MudPIT MS, MG132
[11] = biological target: E6AP ubiquitin-protein ligase, UBE3A (human) (UniProt Q05086); experiment: Flag co-IP, MudPIT MS, MG132
EDD1/UBR5 (human) [12] = biological target: EDD1/UBR5 (human) (UniProt O95071); experiment: Flag co-IP, MudPIT MS, MG132
[13] = biological target: Retinoblastoma-associated factor 600, UBR4 (human) (UniProt Q5T4S7); experiment: Flag co-IP, MudPIT MS, MG132
UBR2 (human) [14] = biological target: UBR2 (human) (UniProt Q8IWV8); experiment: Flag co-IP, MudPIT MS, MG132
gp78 (human) [15] = biological target: gp78 (human) (UniProt Q9UKV5); experiment: Flag co-IP, MudPIT MS, MG132
PLAP (human) = PLAP (human) (UniProt Q9Y263); experiment: Flag co-IP, 293 cells, MudPIT MS
[16] = biological target: CUL4- and DDB I-associated WDR protein 2, WDR26 (human) (UniProt Q9H7D7); experiment: Flag co-IP, MudPIT MS, DMSO
Elongin C (human) = Elongin C (human) (UniProt Q15369); experiment: Flag co-IP, MudPIT MS, MG132
endogenous NPL4 (human) = endogenous NPL4 (human) (UniProt Q8TAT6); experiment: Flag co-IP, 293 cells, MudPIT MS

Chain of Retinoblastoma-associated factor 600, UBR4 (human) (Q5T4S7 whole entry): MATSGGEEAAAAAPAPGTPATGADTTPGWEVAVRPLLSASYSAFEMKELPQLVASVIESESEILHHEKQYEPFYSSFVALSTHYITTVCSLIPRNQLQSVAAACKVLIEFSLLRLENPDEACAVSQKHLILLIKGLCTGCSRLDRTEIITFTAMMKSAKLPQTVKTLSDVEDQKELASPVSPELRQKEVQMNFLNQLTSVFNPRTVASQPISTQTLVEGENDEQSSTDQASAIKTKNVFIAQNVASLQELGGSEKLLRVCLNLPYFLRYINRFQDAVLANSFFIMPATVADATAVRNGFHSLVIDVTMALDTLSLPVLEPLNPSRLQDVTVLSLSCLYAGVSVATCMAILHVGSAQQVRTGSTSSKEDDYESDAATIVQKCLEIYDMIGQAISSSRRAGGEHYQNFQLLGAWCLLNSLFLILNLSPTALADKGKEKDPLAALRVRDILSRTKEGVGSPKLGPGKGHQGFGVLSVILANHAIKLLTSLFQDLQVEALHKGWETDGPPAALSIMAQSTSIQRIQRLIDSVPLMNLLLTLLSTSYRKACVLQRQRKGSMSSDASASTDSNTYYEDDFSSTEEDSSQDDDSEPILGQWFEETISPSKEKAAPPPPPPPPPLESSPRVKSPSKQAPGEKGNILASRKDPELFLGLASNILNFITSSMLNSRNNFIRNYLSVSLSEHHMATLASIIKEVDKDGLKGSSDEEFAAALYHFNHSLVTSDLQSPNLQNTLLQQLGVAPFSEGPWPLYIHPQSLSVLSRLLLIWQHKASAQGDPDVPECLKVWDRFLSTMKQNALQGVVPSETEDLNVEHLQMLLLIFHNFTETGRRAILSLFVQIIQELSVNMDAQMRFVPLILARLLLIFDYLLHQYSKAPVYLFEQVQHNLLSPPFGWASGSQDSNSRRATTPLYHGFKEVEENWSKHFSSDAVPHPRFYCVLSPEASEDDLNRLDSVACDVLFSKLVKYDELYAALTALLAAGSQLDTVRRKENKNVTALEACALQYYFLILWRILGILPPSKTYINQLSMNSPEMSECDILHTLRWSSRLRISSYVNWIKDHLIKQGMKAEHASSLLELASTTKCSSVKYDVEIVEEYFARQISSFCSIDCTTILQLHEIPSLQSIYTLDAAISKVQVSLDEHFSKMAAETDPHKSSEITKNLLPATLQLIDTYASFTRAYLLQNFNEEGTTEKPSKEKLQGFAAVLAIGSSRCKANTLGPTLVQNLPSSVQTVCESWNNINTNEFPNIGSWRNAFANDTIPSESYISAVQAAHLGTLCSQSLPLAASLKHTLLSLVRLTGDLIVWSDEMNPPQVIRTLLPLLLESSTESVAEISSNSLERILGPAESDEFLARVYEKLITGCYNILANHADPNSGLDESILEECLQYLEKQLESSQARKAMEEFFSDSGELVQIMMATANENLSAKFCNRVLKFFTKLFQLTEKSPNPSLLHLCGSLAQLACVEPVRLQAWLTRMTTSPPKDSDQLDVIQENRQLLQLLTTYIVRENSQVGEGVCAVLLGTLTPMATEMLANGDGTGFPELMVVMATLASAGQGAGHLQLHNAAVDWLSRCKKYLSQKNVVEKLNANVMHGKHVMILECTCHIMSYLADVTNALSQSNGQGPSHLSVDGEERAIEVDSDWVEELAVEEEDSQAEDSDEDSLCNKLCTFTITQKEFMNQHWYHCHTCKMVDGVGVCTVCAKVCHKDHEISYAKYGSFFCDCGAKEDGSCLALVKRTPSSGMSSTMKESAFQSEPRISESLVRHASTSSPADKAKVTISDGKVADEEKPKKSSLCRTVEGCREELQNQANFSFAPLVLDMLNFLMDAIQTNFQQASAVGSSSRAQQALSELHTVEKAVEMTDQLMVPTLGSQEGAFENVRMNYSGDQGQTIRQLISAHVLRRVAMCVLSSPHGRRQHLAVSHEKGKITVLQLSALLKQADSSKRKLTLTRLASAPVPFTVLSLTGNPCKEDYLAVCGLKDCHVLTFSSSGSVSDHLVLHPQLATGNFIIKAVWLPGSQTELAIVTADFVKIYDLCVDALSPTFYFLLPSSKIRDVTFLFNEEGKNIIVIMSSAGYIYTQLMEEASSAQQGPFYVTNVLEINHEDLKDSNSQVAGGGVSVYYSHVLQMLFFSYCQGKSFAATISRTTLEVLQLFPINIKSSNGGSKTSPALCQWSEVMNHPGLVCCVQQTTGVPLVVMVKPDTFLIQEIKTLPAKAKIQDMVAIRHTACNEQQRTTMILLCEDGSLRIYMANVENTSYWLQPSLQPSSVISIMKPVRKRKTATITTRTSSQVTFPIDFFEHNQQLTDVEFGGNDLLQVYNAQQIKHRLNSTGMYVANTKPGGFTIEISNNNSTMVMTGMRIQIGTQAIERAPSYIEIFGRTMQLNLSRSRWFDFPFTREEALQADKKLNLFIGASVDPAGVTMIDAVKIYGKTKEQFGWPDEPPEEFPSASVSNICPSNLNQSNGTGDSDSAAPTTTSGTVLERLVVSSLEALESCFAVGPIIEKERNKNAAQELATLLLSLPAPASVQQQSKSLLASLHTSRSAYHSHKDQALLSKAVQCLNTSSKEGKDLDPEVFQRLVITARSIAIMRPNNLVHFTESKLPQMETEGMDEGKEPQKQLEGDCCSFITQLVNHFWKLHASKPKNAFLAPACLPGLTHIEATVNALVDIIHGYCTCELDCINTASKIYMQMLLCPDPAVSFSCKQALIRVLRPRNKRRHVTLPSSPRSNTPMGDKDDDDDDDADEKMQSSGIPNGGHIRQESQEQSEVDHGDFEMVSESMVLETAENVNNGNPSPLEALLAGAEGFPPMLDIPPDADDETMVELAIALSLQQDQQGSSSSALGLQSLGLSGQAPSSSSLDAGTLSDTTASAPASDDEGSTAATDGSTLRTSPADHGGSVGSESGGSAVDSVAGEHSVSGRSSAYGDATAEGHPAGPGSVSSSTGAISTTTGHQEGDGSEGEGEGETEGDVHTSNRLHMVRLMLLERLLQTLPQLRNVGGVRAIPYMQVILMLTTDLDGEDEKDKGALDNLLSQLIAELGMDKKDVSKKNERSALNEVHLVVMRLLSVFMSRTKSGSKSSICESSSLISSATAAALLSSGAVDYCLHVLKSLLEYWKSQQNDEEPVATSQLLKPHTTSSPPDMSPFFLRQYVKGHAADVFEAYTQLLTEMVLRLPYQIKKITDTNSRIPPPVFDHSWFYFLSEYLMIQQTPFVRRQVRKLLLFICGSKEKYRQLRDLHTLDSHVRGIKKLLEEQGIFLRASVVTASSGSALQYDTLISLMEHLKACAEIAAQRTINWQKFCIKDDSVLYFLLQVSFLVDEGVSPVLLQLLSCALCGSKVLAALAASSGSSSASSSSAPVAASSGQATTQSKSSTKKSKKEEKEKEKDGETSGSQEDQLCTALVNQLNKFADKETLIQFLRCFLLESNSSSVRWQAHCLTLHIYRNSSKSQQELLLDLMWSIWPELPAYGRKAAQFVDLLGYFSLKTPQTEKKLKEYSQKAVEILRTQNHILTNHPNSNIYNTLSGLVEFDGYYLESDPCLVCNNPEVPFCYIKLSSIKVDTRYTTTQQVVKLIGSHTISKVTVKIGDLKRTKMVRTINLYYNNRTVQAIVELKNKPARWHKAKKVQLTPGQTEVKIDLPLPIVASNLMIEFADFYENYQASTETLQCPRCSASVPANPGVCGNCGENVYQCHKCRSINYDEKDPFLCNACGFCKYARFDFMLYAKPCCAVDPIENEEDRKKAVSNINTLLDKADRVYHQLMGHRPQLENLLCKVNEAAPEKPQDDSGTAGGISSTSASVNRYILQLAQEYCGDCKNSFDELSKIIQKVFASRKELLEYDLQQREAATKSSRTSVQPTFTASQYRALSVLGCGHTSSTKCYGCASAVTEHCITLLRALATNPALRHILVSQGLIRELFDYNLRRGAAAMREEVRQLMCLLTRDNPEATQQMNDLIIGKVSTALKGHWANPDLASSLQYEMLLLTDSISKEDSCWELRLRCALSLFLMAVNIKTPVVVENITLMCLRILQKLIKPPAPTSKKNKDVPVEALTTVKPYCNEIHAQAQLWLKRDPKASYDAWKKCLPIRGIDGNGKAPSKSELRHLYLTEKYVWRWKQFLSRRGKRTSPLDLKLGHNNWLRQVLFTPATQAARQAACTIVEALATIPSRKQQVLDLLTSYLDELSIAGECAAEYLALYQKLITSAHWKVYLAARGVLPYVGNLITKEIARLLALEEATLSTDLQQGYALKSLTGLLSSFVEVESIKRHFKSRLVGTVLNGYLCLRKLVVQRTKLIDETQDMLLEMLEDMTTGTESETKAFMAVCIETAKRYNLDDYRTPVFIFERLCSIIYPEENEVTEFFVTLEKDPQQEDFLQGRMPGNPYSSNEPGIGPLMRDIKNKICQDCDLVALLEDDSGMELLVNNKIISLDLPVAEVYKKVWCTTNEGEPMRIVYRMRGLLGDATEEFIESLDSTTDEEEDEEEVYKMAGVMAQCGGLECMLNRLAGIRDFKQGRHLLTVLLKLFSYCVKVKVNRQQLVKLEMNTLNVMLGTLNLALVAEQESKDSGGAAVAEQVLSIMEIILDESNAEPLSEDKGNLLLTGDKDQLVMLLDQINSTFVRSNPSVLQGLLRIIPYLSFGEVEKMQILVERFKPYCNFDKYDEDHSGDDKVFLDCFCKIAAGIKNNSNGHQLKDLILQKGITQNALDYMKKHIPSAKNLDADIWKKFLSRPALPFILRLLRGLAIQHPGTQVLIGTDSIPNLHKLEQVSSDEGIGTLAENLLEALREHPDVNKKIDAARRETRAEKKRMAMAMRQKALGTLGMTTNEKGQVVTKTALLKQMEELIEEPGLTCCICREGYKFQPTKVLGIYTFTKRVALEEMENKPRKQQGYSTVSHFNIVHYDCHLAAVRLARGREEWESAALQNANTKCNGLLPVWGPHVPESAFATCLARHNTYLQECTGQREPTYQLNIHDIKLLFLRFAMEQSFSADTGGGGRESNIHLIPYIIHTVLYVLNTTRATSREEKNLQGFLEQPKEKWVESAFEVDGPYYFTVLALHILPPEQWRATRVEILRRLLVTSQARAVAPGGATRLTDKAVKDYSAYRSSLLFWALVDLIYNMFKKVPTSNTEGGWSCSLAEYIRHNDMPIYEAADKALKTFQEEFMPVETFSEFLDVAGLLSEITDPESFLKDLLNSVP

abundance factor (AF) [1]: 2.3
sequence count [1]: 2
spectrum count [1]: 2
abundance factor (AF) [2]: 6.4
sequence count [2]: 2
spectrum count [2]: 5
abundance factor (AF) (Cullin 3 (human)): 2.7
sequence count (Cullin 3 (human)): 3
spectrum count (Cullin 3 (human)): 3
abundance factor (AF) (EDD1/UBR5 (human) [4]): 2.6
sequence count (EDD1/UBR5 (human) [4]): 9
spectrum count (EDD1/UBR5 (human) [4]): 10
abundance factor (AF) [5]: 2.3
sequence count [5]: 2
spectrum count [5]: 2
abundance factor (AF) (Praja 2 (human)): 3.1
sequence count (Praja 2 (human)): 3
spectrum count (Praja 2 (human)): 3
abundance factor (AF) [6]: 3.8
sequence count [6]: 18
spectrum count [6]: 27
abundance factor (AF) (UBR1 (human)): 0.8
sequence count (UBR1 (human)): 2
spectrum count (UBR1 (human)): 2
abundance factor (AF) (UBR2 (human) [7]): 2.8
sequence count (UBR2 (human) [7]): 5
spectrum count (UBR2 (human) [7]): 7
abundance factor (AF) (gp78 (human) [8]): 3.3
sequence count (gp78 (human) [8]): 3
spectrum count (gp78 (human) [8]): 3
abundance factor (AF) [10]: 0.6
sequence count [10]: 4
spectrum count [10]: 7
abundance factor (AF) [11]: 2.2
sequence count [11]: 4
spectrum count [11]: 5
abundance factor (AF) (EDD1/UBR5 (human) [12]): 2
sequence count (EDD1/UBR5 (human) [12]): 9
spectrum count (EDD1/UBR5 (human) [12]): 14
abundance factor (AF) [13]: 5.7
sequence count [13]: 30
spectrum count [13]: 74
abundance factor (AF) (UBR2 (human) [14]): 1.3
sequence count (UBR2 (human) [14]): 3
spectrum count (UBR2 (human) [14]): 6
abundance factor (AF) (gp78 (human) [15]): 3.6
sequence count (gp78 (human) [15]): 3
spectrum count (gp78 (human) [15]): 6
sequence count (PLAP (human)): 26
sequence coverage (PLAP (human)): 32.1%
spectrum count (PLAP (human)): 90
Substance: Flag-SAKS1 (from UniProt Q04323 1-297)
abundance factor (AF) [3]: 1.3
sequence count [3]: 2
spectrum count [3]: 2
abundance factor (AF) [9]: 0.7
sequence count [9]: 2
spectrum count [9]: 2

abundance factor (AF) [1]: 6.1
sequence count [1]: 3
spectrum count [1]: 3
abundance factor (AF) [2]: 18.1
sequence count [2]: 6
spectrum count [2]: 8
abundance factor (AF) [16]: 46.4
sequence count [16]: 12
spectrum count [16]: 19
abundance factor (AF) (Cullin 3 (human)): 37
sequence count (Cullin 3 (human)): 13
spectrum count (Cullin 3 (human)): 23
abundance factor (AF) [5]: 6
sequence count [5]: 3
spectrum count [5]: 3
abundance factor (AF) (Praja 2 (human)): 5.5
sequence count (Praja 2 (human)): 2
spectrum count (Praja 2 (human)): 3
abundance factor (AF) [6]: 4.5
sequence count [6]: 12
spectrum count [6]: 18
abundance factor (AF) (UBR1 (human)): 1.4
sequence count (UBR1 (human)): 2
spectrum count (UBR1 (human)): 2
abundance factor (AF) (UBR2 (human) [7]): 2.1
sequence count (UBR2 (human) [7]): 2
spectrum count (UBR2 (human) [7]): 3
abundance factor (AF) (gp78 (human) [8]): 5.9
sequence count (gp78 (human) [8]): 3
spectrum count (gp78 (human) [8]): 3
abundance factor (AF) (EDD1/UBR5 (human) [12]): 0.2
sequence count (EDD1/UBR5 (human) [12]): 2
spectrum count (EDD1/UBR5 (human) [12]): 2
abundance factor (AF) (Elongin C (human)): 20
sequence count (Elongin C (human)): 8
spectrum count (Elongin C (human)): 10
abundance factor (AF) [13]: 2.1
sequence count [13]: 41
spectrum count [13]: 49
sequence count (PLAP (human)): 2
sequence coverage (PLAP (human)): 4%
spectrum count (PLAP (human)): 2
sequence count (endogenous NPL4 (human)): 14
sequence coverage (endogenous NPL4 (human)): 24.5%
spectrum count (endogenous NPL4 (human)): 33
Substance: Flag-UBXD7 (from UniProt O94888 1-489)
abundance factor (AF) [3]: 12.4
sequence count [3]: 11
spectrum count [3]: 11
abundance factor (AF) [9]: 2.6
sequence count [9]: 13
spectrum count [9]: 13

abundance factor (AF) [16]: 1.2
sequence count [16]: 2
spectrum count [16]: 4
abundance factor (AF) (EDD1/UBR5 (human) [4]): 0.2
sequence count (EDD1/UBR5 (human) [4]): 3
spectrum count (EDD1/UBR5 (human) [4]): 3
abundance factor (AF) (Praja 2 (human)): 0.7
sequence count (Praja 2 (human)): 3
spectrum count (Praja 2 (human)): 3
abundance factor (AF) [6]: 0.2
sequence count [6]: 3
spectrum count [6]: 5
abundance factor (AF) (UBR1 (human)): 0.3
sequence count (UBR1 (human)): 3
spectrum count (UBR1 (human)): 3
abundance factor (AF) (UBR2 (human) [7]): 0.4
sequence count (UBR2 (human) [7]): 3
spectrum count (UBR2 (human) [7]): 5
abundance factor (AF) (gp78 (human) [8]): 0.5
sequence count (gp78 (human) [8]): 2
spectrum count (gp78 (human) [8]): 2
abundance factor (AF) [10]: 0.3
sequence count [10]: 6
spectrum count [10]: 6
abundance factor (AF) [11]: 0.5
sequence count [11]: 2
spectrum count [11]: 2
abundance factor (AF) (EDD1/UBR5 (human) [12]): 0.8
sequence count (EDD1/UBR5 (human) [12]): 9
spectrum count (EDD1/UBR5 (human) [12]): 10
abundance factor (AF) (Elongin C (human)): 5.7
sequence count (Elongin C (human)): 2
spectrum count (Elongin C (human)): 3
abundance factor (AF) [13]: 0.3
sequence count [13]: 6
spectrum count [13]: 6
abundance factor (AF) (UBR2 (human) [14]): 0.2
sequence count (UBR2 (human) [14]): 2
spectrum count (UBR2 (human) [14]): 2
abundance factor (AF) (gp78 (human) [15]): 1.9
sequence count (gp78 (human) [15]): 4
spectrum count (gp78 (human) [15]): 6
sequence count (PLAP (human)): 10
sequence coverage (PLAP (human)): 20.1%
spectrum count (PLAP (human)): 15
sequence count (endogenous NPL4 (human)): 11
sequence coverage (endogenous NPL4 (human)): 20.6%
spectrum count (endogenous NPL4 (human)): 209
Substance: Flag-UBXD8 (from UniProt Q96CS3 1-445)
abundance factor (AF) [3]: 0.3
sequence count [3]: 2
spectrum count [3]: 2
abundance factor (AF) [9]: 0.7
sequence count [9]: 3
spectrum count [9]: 4
